Experimental data from US9205136B2, “Human aminoacyl-tRNA synthetase polypeptides useful for the regulation of angiogenesis” (THE SCRIPPS RESEARCH INSTITUTE, priority 2000, dated 2015).
“Also recorded” adds a separate entry of the source.

Assays:
MPs [1] = test: MP tissue factor production (Factor VIIa-dependent Factor Xa formation); assay type: cell-based, human; settings: 1 nM sample protein, 4 hours
Description: (§1) Cells for the various cytokine assays described were prepared from acid citrate dextrose-treated blood of normal healthy volunteers. Human PMNs were isolated from the blood by centrifugation (700×g) over Histopaque 1077 and 1119 (Sigma). […] This procedure was repeated twice. Human MPs were isolated by centrifugation on Histopaque 1077 (Sigma). The mononuclear fraction was obtained, washed twice in Hanks' balanced salt solution, resuspended in RPMI-1640 medium (Sigma) containing 10% heat-inactivated fetal bovine serum (Sigma), plated in tissue culture flasks, and incubated in a 6% CO2 incubator at 37° C. for 1-2 hours (Kumagai et al., 1979, J. Immunol. Methods 29:17-25). Nonadherent cells were removed by washing the flasks three times with Hanks' balanced salt solution, and adherent cells were harvested by incubation with calcium-magnesium free phosphate-buffered saline containing 2 mM EDTA for 15 minutes at 4° C., followed by extensive washing.
MP tissue factor production was examined following incubation of 10^4 MPs with 1 nM of sample protein for 4 hours. Tissue factor activity was then inferred from measurements of Factor VIIa-dependent Factor Xa formation (Wolfson et al., 1990 J. Chromatogr., 503:277-81). Each determination shown in FIG. 2 represents the mean of four measurements from at least three independent experiments.

PMNs [2] = test: PMN release of myeloperoxidase; assay type: cell-based, human; settings: 1 nM sample protein, 60 minutes
Description: as §1
PMN release of myeloperoxidase was examined following incubation of 3×10^6 PMNs per mL with 1 nM of sample protein for 60 minutes. The generation of peroxidase was then measured by the reduction of 3,3′,5,5′-tetramethylbenzidine (Barker et al., 1982, FEBS Lett. 150:419-23). Peroxidase activity is shown in FIG. 3 as the percent of total peroxidase activity where 100% peroxidase activity is defined as the activity observed for 3×10^6 PMNs following exposure to 10 μM phorbol ester for 60 minutes. Each determination shown in FIG. 3 represents the mean of four measurements from at least three independent experiments.

PMNs [3] = test: PMN chemotaxis assay (ChemoTX microchemotaxis chamber); assay type: cell-based, human; settings: for PMN chemotaxis (PMN migration): sample proteins 1 nM, 45 min
Description: as §1
PMN chemotaxis assays were performed in a ChemoTX microchemotaxis chamber (described herein). Sample proteins (1 nM) were added to the lower compartment of chemotaxis chambers, and 10^4 PMNs were added to the upper compartment. Chambers were incubated for 45 min, and migrating cells were counted in HPFs. Each determination shown in FIG. 2 represents the average of nine HPF measurements.

PMNs [4] = test: 125I-human mini TyrRS binding and competition assay on PMNs; settings: 10 nM 125I-mini TyrRS, 200-fold molar excess of unlabeled ligand, on ice 2 hours
Description: The interaction of human mini TyrRS and PMNs was examined in binding studies using radioiodinated TyrRS molecules (Moser et al., 1993, J. Biol. Chem. 268:7125-28). Custom radioiodination of mini TyrRS with was performed by Research & Diagnostic Antibody (Richmond, Calif.). In the binding assays, 2×10^6 PMNs were first suspended in 120 μl of RPMI-1640 medium containing 20 mM Hepes (pH 7.4) and 10 mg/ml bovine serum albumin. […] Following incubation, cells were separated from unbound radioactivity by centrifugation at approximately 8000×g for 2 minutes through 500 μL, of a 10% sucrose/phosphate-buffered saline (PBS) cushion. The supernatant was aspirated, and the cell sediment was resuspended using EcoLite (ICN Biomedicals, Irvine, Calif.) and analyzed in a scintillation counter.
Following incubation, cells were separated from unbound radioactivity as described herein.

MPs [5] = test: MP TNFα production (ELISA of culture supernatant); assay type: cell-based, human; settings: 1 nM sample protein, 14 hours
Description: as §1
MP TNFα production was examined following incubation of 10^5 MPs with 1 nM of sample protein for 14 hours. Aliquots of the culture supernatant were then assayed for TNFα production using a TNFα enzyme-linked immunosorbent assay kit (Sigma). Each determination shown in FIG. 2 represents the mean of four measurements from at least three independent experiments.

MPs [6] = test: MP chemotaxis assay (ChemoTX microchemotaxis chamber); assay type: cell-based, human; settings: sample proteins 1 nM, 3 hours
Description: as §1
MP chemotaxis assays were performed in a ChemoTX microchemotaxis chamber (Neuro Probe, Gaithersburg, Md.) containing polycarbonate filters (5 μm pores) with polyvinylpyrrolidone (PVP). MPs were suspended in RPMI-1640 medium containing 1% heat-inactivated fetal bovine serum, and 10^4 cells were added to the upper chamber. Sample proteins (1 nM) were added to the lower compartment of chemotaxis chambers, and the chambers were incubated for 3 hours. After incubation, nonmigrating cells were removed, membranes were fixed in methanol, and migrating cells were visualized with the HEMACOLOR™ stain set (EM Diagnostic Systems, Gibbstown, N.J.). Migrating cells were counted in high-power fields (HPFs). Each determination shown in FIG. 2 represents the average of nine HPF measurements.

[7] = test system: human umbilical vein endothelial cells (HUVECs); test: HUVEC migration assay (modified Boyden chamber); assay type: cell-based; settings: 50 nM TyrRS molecule or 0.5 nM VEGF165, 6 hours
Description: In contrast, α-chemokines lacking the ELR motif act as angiostatic factors (id.). In order to evaluate the angiogenic activity of TyrRS, which contains the ELR motif, human full-length TyrRS and human mini TyrRS were first examined for their ability to induce endothelial cell migration. Such angiogenic assays were performed using human umbilical vein endothelial cells (HUVECs) (Clonetics, Walkersville, Md.). Cells were maintained in EGM-2® BULLETKIT® medium (Clonetics) in an atmosphere of 6% CO2 at 37° C. according to the supplier's instructions.
Cell migration assays were performed using the modified Boyden chamber (6.5 mm Transwells) with polycarbonate membranes (8.0 μm pore size) (Costar Corp., Cambridge, Mass.) (Masood et al., 1999, Blood 93:1038-44). Wells were coated overnight with 25 μg/mL human fibronectin (Biosource International, Camarillo, Calif.) in PBS and then allowed to air-dry. HUVECs were suspended in Dulbecco's modified Eagle's medium (DMEM) (Gibco-BRL, Gaithersburg, Md.) containing 0.1% BSA (Sigma) and 2×10^5 cells per well were added to the upper chamber. The chemotactic stimulus (50 nM of a given TyrRS molecule or 0.5 nM of human vascular endothelial growth factor-165 (VEGF165) (Biosource International, Camarillo, Calif.)) was placed in the lower chamber, and the cells were allowed to migrate for 6 hours at 37° C. in a 6% CO2 incubator. After incubation, non-migrant cells were removed from the upper face of the Transwell membrane with a cotton swab and migrant cells, those attached to the lower face, were fixed in methanol and visualized with the HEMACOLOR® stain set (EM Diagnostic Systems, Gibbstown, N.J.). Migrating cells were counted in high-power fields (HPFs). HUVECs were suspended in media with the inhibitor for 30 minutes before placement in the chamber. Each determination shown in FIG. 16 represents the average of nine HPF measurements.

B1: E. coli TyrRS: E. coli tyrosyl-tRNA synthetase, similar in size to human mini TyrRS (protein)
chain: MASSNLIKQLQERGLVAQVTDEEALAERLAQGPIALYCGFDPTADSLHLGHLVPLLCLKRFQQAGHKPVALVGGATGLIGDPSFKAAERKLNTEETVQEWVDKIRKQVAPFLDFDCGENSAIAANNYDWFGNMNVLTFLRDIGKHFSVNQMINKEAVKQRLNREDQGISFTEFSYNLLQGYDFACLNKQYGVVLQIGGSDQWGNITSGIDLTRRLHQNQVFGLTVPLITKADGTKFGKTEGGAVWLDPKKTSPYKFYQFWINTADADVYRFLKFFTFMSIEEINALEEEDKNSGKAPRAQYVLAEQVTRLVHGEEGLQAAKRITECLFSGSLSALSEADFEQLAQDGVPMVEMEKGADLMQALVDSELQPSRGQARKTIASNAITINGEKQSDPEYFFKEEDRLFGRFTLLRRGKKNYCLICWK
- MP tissue factor production (MPs [1]): inactive in all of the assays
- PMN release of myeloperoxidase (PMNs [2]): inactive in all of the assays
- PMN chemotaxis (PMN migration) (PMNs [3]): inactive in all of the assays; also recorded: no chemotaxis was observed
- inhibition of 125I-mini TyrRS binding to PMNs by unlabeled ligand (PMNs [4]): did not inhibit the binding
- MP TNFα production (MPs [5]): inactive in all of the assays
- MP chemotaxis (MP migration) (MPs [6]): inactive in all of the assays

B2: TyrRS carboxyl-terminal domain: residues 359-528 of full-length TyrRS (protein)
chain: MPEEVIPSRLDIRVGKIITVEKHPDADSLYVEKIDVGEAEPRTVVSGLVQFVPKEELQDRLVVVLCNLKPQKMRGVESQGMLLCASIEGINRQVEPLDPPAGSAPGEHVFVKGYEKGQPDEELKPKKKVFEKLQADFKISEECIAQWKQTNFMTKLGSISCKSLKGGNISLEHHHHHH
modifications: His6 tag; Human TyrRS carboxyl-terminal domain in pET20B
notes: residues 359-528 of full-length TyrRS
- MP tissue factor production (MPs [1]): stimulated production
- PMN release of myeloperoxidase (PMNs [2]): induced the release of myeloperoxidase in PMNs
- concentration dependence of PMN migration (PMNs [3]): bell-shaped concentration dependence
- PMN chemotaxis (PMN migration) (PMNs [3]): induced PMN migration
- inhibition of 125I-mini TyrRS binding to PMNs by unlabeled ligand (PMNs [4]): neither the TyrRS carboxyl-terminal domain nor EMAP II inhibited
- MP TNFα production (MPs [5]): stimulated production
- MP chemotaxis (MP migration) (MPs [6]): induced MP migration to an extent comparable with that observed for EMAP II

B3: full-length TyrRS: recombinant human tyrosyl-tRNA synthetase, 528 amino acid residues, C-terminal His6 tag (protein)
chain: MGDAPSPEEKLHLITRNLQEVLGEEKLKEILKERELKIYWGTATTGKPHVAYFVPMSKIADFLKAGCEVTILFADLHAYLDNMKAPWELLELRVSYYENVIKAMLESIGVPLEKLKFIKGTDYQLSKEYTLDVYRLSSVVTQHDSKKAGAEVVKQVEHPLLSGLLYPGLQALDEEYLKVDAQFGGIDQRKIFTFAEKYLPALGYSKRVHLMNPMVPGLTGSKMSSSEEESKIDLLDRKEDVKKKLKKAFCEPGNVENNGVLSFIKHVLFPLKSEFVILRDEKWGGNKTYTAYVDLEKDFAAEVVHPGDLKNSVEVALNKLLDPIREKFNTPALKKLASAAYPDPSKQKPMAKGPAKNSEPEEVIPSRLDIRVGKIITVEKHPDADSLYVEKIDVGEAEPRTVVSGLVQFVPKEELQDRLVVVLCNLKPQKMRGVESQGMLLCASIEGINRQVEPLDPPAGSAPGEHVFVKGYEKGQPDEELKPKKKVFEKLQADFKISEECIAQWKQTNFMTKLGSISCKSLKGGNISLEHHHHHH
modifications: C-terminal His6 tag; Human full-length TyrRS in pET20B
notes: recombinant human tyrosyl-tRNA synthetase, 528 amino acid residues, C-terminal His6 tag
- MP tissue factor production (MPs [1]): none of the properties observed for the carboxyl-terminal domain
- PMN release of myeloperoxidase (PMNs [2]): none of the properties observed for the carboxyl-terminal domain
- HUVEC chemotaxis [7]: no chemotaxis was observed
- PMN chemotaxis (PMN migration) (PMNs [3]): none of the properties observed for the carboxyl-terminal domain
- inhibition of 125I-mini TyrRS binding to PMNs by unlabeled ligand (PMNs [4]): did not inhibit the binding
- MP TNFα production (MPs [5]): none of the properties observed for the carboxyl-terminal domain
- MP chemotaxis (MP migration) (MPs [6]): no chemotaxis was observed
